Assay [1] has as its target T1, baculovirus-derived recombinant human CD4 (rhCD4) (human, UniProt P01730 26-396, limits assumed).
T1 construct: Bought reagent, coated on ELISA plates at 50 ng/well
The assay can be described thus: ELISA, purified Fab on coated rhCD4. Here is the method:
(§1) The rhCD4 was dissolved in a 50 mM carbonate buffer (pH 9.6) solution to a concentration of 2 μg/mL, and the thus prepared solution was dispensed in an amount of 50 μL each into the wells on an ELISA plate, and it was then left at 4° C. overnight. Thereafter, the wells were washed with PBS-T (PBS-0.05% Tween) once. Then, 300 μL of PBS-T-SM (PBS-T-1% skim milk) was added thereto, so as to block it at room temperature for 1 hour. Subsequently, the PBS-T-SM was removed, 50 μL of an antibody sample diluted with PBS-T-SM was then added thereto, and the mixture was then left at room temperature for 1 hour. Thereafter, the sample was removed, and the residue was then washed with PBS-T three times. A PO-bound anti-human IgG-Fab antibody was diluted with PBS-T at a ratio of 1:2000, and 50 μL of the thus diluted solution was then added to the wells. The obtained mixture was left at room temperature for 1 hour. Thereafter, the secondary antibody was removed, and the residue was then washed with PBS-T three times. 50 μL of a TMB reagent was added to the resultant, so as to develop color. The color was measured at OD of 650 nm.
(§2) The percentage of peripheral B cells producing human CD4-reactive antibodies in total peripheral B cells was assumed to be approximately 0.0013%. The binding of the IgM Fab of each of the purified three clones to rhCD4 was examined by ELISA (FIG. 2).

Assay [2] addresses T1, baculovirus-derived recombinant human …. The assay can be described thus: ELISA, purified Fab on coated rhCD4 (50 ng/well); amount of antibody at OD650 of about 0.7 to 0.8, where 50% of the maximum binding was observed. How it is done: as §1, with “Thereafter,” for “The rhCD4 was dissolved in a 50 mM carbonate buffer (pH 9.6) solution to a concentration of 2 μg/mL, and the thus prepared solution was dispensed in an amount of 50 μL each into the wells on an ELISA plate, and it was then left at 4° C. overnight. Thereafter,”
as §2

B1: HO538-213 (Fab, V domains shown)
VH: QVQLVQSGGGVVQPGRSLRLSCAASGFTFSSYGMHWVRQAPGKGLEWVAVVCYDGRTTYYADSVKGRFTISRDISENTLYLQMNSLRAEDTAVYYCAKDLNKGYCNNGGCYGVDCWGQGTLVTVSS
VL: EIVMTQSPATLSLSPGERATLSCRASQSVNNYLAWYQQRPGQAPSLLIYDASNRATGIPARFSGSGSGTDFTLTISSLEPEDFAVYYCQQRGNWPHTFGQGTKLEIKR
notes: Human IgM Fab (mu Fd and kappa light chain) expressed in E. coli JM109 from the vector pFab1-His2 and purified on an anti-Fab column; No sentence says it outright
For the molecule B1, the “affinity relative to the other clones (HO702-001 and HO702-016)” value in assay [1] amounted to 0.125 fold. The half-maximal effective concentration (EC50) (in general, the concentration at which the effect is half-maximal) in assay [2] was about 8 µg/mL.

The values above are taken from patent publication US20120028347A1 (TOKAI UNIVERSITY EDUCATIONAL SYSTEM, published 2012).
